Assay results reported in paper PMC7467872.

Tests used:
[1] = target: His-tagged FP8_v1 (HIV-1); assay: BLI
[2] = target: BG505 DS-SOSIP ∆88 Env trimer (glycan N88 removed) (HIV-1 strain BG505); assay: SPR
[3] = target: His-tagged FP8_v1 (HIV-1); assay: SPR

B1: VRC34-pI3 P33A (heavy chain) mutant antibody (antibody, V domains shown)
VH: QEVLVQSGAEVKKPGASVKVSCKAFGYTFTGNAMHWVRQAPGQGLEWMGWINPHSGDTTTAQKFQGRVYMTRDKSINTAYLDVTRLTSDDTAIYYCARDKYYGNEAVGMDVWGQGTTVTVSS
VL: DIQLTQSPSFLSASVGDRVTITCRASQGISNELAWYQQKPGKAPNLLIYYASTLQSGVPSRFSASGSGTHFTLTISSLQPEDFATYFCQHMSSYPLTFGGGTKVEIK
Kd [1]: 60 nM

B2: VRC34.05 Fab (Fab, V domains shown)
VH: SQYLAQSGSEVKKPGASVKVSCRLHGDKFGAHYIHWVRQAPGQGLEWLGFFHPGTGDAVSAQKFQGRISLTRDTSISTGYLEVRRLSSDDTAVYYCARDKTYSDEATGMDIWGQGTTVIVSS
VL: DIKLTQSPAFLSASVGERVTFTCRASQDIRHELVWYQQKPGRGPKLLIYYGSTLEGGVPSRFSGRRSGTEFTVTISSLQPEDVGTYYCQQLNSFPLTFGGGTTVDIR
fold decrease of affinity against the BG505 trimer with glycan N88 [2]: 100 fold

B3: VRC34.07 Fab (Fab, V domains shown)
VH: SQYLAQPGAEVAKPGASVKVSCKVHGDNFRGHYLHWVRQAPGQGLQWIGGINPFSGEAAYGKRFEGRLRLTRDTSVNTAYMELAKLTPDDTAVYFCARDKTYNDEFTAMDIWGHGTTVIVSS
VL: DIKLTQSPAFLSASVGERVTFTCRASQDISHDLVWFQQKAGRAPSLLMFYGSTLERGVPPRFSGRRSGTEFTVTIDSLQPEDVGTYYCQQLSAFPLTFGGGTTVDIK
Kd [3]: 0.2 nM
